The values below come from publication PMC9935876, “Structure of the planar cell polarity cadherins Fat4 and Dachsous1” (Nature Communications, 2023).

Residue numbers refer to the chain shown, from its start. In names and notes the source's numbering stands. Several values for one entry are separate records, joined by “and”; a condition that tells them apart may be missing. Identical values can stand only once. Like-named read-outs stand apart in the source and are kept apart here.

In one assay the target is CDH23 EC1-EC2 (UniProt Q99PF4). Conditions: cited from earlier work.
In assay [1] the target is Drosophila Ft(EC1–4), phosphorylated (Drosophila). In words: ITC; fly Ft(EC1–4) at ~50 μM and Ds(EC1–4) at ~300 μM, unmodified or phosphorylated with Fj; same conditions as for the human proteins (20 °C); one set of sites.
In assay [2] the target is Phosphorylated Drosophila Ft(EC1-4) (Drosophila) (UniProt P33450). Kind of assay: ITC; MicroCal ITC200; fly Ft(EC1-4) ~50 µM and Ds(EC1-4) ~300 µM, unmodified or phosphorylated with Fj; same conditions as for the human proteins (20 °C); fitted with one set of sites; two independent experiments.
Sequence of Phosphorylated Drosophila Ft(EC1-4) (Drosophila) (P33450 36-5147): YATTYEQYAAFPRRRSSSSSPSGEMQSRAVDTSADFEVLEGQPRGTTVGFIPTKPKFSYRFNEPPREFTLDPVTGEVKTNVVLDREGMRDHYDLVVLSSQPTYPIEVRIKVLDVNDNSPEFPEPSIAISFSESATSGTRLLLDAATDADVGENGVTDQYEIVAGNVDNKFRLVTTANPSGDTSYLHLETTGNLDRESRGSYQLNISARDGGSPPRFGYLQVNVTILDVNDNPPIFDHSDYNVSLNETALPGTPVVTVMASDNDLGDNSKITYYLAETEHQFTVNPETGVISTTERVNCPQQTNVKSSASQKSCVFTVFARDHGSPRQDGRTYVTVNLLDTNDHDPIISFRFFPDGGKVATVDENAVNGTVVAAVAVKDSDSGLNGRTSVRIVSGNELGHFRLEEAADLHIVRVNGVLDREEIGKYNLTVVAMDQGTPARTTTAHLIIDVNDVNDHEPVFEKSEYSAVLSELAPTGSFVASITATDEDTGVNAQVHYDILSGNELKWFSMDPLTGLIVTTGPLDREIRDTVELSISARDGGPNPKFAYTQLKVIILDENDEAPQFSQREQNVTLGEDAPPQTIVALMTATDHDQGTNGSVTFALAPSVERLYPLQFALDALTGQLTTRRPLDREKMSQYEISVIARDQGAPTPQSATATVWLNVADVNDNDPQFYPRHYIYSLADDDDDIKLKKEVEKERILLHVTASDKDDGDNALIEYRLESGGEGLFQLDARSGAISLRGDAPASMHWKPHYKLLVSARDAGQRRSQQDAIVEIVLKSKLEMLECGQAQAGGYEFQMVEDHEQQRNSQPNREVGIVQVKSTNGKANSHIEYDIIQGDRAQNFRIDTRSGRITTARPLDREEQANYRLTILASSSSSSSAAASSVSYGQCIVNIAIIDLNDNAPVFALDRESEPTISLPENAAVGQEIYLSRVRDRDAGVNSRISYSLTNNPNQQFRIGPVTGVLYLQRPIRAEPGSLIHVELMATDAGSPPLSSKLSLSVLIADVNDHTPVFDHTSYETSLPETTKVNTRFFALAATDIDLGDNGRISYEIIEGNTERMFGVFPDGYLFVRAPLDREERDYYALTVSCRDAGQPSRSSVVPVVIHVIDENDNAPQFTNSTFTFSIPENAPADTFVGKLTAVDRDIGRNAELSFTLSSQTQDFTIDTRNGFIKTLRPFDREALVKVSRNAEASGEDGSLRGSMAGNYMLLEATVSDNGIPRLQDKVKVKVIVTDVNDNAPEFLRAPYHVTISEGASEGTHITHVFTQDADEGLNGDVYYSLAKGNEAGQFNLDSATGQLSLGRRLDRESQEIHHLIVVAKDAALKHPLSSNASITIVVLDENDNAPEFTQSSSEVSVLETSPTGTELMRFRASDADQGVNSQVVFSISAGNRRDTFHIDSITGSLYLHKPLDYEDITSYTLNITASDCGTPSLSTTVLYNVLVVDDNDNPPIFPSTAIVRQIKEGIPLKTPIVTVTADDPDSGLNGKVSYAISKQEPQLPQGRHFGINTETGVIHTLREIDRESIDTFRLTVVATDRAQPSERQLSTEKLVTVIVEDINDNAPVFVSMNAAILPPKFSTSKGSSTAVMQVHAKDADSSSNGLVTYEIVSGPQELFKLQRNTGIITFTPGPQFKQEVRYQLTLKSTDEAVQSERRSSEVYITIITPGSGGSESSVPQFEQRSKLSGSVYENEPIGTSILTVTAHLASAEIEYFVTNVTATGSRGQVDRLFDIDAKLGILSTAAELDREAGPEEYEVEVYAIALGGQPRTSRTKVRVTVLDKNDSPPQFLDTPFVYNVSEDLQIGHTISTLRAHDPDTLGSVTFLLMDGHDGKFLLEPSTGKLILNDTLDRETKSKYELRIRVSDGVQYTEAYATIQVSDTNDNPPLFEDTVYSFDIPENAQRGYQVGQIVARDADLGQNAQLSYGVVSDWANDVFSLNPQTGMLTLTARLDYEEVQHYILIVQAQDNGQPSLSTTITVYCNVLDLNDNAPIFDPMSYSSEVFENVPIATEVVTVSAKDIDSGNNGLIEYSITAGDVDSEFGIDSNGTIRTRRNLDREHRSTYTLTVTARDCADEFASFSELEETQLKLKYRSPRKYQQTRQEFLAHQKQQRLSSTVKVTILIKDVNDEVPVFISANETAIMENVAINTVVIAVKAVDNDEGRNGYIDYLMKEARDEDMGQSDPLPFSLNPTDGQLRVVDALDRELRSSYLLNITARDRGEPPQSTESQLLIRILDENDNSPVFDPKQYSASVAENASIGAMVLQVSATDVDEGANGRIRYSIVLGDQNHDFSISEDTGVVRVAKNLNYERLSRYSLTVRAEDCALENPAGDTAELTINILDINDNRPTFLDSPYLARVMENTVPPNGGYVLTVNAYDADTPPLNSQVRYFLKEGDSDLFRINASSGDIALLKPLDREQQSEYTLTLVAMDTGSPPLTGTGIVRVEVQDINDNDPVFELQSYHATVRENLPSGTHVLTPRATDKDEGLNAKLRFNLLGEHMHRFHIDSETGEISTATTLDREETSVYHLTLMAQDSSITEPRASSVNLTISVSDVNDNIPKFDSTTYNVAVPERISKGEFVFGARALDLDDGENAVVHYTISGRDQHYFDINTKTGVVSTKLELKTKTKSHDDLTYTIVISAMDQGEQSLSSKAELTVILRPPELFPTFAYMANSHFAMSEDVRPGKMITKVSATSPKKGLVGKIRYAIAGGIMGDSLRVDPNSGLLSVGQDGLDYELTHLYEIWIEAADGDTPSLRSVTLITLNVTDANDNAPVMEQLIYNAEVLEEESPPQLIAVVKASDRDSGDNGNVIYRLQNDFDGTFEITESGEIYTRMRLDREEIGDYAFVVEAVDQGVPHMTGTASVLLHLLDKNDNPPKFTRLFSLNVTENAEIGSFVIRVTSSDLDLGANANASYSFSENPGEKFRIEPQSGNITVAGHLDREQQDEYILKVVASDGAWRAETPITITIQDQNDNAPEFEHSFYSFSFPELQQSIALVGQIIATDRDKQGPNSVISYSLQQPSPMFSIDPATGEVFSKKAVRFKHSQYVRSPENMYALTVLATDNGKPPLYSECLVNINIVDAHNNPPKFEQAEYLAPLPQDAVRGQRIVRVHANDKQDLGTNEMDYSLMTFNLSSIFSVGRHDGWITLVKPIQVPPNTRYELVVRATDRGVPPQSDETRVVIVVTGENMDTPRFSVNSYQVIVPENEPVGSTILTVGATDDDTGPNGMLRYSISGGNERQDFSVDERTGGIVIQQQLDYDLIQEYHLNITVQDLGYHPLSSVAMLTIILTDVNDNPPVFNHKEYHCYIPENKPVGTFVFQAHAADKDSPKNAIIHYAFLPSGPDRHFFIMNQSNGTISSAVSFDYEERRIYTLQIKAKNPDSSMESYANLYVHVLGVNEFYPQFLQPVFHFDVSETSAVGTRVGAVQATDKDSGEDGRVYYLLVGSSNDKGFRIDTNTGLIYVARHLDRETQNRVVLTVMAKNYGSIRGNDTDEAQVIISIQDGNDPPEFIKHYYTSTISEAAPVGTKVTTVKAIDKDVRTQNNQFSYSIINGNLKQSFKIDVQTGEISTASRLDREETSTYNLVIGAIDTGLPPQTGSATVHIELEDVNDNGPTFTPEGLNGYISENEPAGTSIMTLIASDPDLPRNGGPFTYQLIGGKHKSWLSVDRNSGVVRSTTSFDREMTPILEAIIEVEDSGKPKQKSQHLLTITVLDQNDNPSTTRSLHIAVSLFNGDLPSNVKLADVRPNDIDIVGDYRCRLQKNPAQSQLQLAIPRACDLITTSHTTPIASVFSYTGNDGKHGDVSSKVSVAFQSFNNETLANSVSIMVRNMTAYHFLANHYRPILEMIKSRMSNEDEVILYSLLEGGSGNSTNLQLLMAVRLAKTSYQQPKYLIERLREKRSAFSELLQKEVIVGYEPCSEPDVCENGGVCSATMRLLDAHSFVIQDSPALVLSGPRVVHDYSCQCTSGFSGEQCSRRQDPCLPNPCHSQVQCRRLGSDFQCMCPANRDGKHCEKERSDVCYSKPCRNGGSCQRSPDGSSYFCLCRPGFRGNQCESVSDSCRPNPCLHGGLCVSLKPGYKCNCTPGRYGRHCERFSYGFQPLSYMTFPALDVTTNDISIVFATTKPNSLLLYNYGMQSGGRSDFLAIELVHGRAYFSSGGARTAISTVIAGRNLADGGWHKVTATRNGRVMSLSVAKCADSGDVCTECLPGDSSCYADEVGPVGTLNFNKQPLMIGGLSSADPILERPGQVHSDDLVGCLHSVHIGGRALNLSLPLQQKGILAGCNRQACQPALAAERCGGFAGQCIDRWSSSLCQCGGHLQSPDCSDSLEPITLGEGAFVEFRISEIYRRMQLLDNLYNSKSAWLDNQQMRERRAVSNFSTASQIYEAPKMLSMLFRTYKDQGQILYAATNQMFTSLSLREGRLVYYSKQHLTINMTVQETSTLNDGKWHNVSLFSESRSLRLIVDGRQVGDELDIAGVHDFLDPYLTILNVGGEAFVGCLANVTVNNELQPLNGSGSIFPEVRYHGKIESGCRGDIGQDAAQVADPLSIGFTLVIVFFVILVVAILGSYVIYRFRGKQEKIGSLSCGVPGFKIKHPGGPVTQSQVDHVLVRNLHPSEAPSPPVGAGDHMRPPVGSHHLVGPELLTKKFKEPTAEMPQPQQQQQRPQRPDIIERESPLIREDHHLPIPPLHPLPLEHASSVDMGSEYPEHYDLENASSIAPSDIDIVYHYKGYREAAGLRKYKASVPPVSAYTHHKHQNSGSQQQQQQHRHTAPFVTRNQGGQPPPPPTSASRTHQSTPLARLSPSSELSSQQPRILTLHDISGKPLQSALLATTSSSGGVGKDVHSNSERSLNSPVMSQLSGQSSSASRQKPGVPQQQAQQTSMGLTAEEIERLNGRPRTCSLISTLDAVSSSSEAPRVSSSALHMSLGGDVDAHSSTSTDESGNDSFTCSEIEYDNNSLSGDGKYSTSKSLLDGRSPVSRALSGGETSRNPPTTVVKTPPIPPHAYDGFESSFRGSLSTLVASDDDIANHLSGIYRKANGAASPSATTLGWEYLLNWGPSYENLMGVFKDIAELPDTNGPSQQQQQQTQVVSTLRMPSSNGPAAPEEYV
For assay [3] the target is unchanged. Kind of assay: ITC; MicroCal ITC200; fly Ft(EC1-4) ~50 µM, fly Ds(EC1-4) ~300 µM; proteins phosphorylated with Fj as needed; 20 °C; one set of sites. Background: In ITC the heat of successive injections is recorded.
The target in the next assay is T1, Human Fat4(EC1-4) R152A (human, UniProt Q6V0I7 43-475, R152A).
T1 construct: human Fat4, EC1-EC4, aa43-475, with R152A in EC2; also called Fat4R152A(EC1-4); Fat4R152A
T1 sequence: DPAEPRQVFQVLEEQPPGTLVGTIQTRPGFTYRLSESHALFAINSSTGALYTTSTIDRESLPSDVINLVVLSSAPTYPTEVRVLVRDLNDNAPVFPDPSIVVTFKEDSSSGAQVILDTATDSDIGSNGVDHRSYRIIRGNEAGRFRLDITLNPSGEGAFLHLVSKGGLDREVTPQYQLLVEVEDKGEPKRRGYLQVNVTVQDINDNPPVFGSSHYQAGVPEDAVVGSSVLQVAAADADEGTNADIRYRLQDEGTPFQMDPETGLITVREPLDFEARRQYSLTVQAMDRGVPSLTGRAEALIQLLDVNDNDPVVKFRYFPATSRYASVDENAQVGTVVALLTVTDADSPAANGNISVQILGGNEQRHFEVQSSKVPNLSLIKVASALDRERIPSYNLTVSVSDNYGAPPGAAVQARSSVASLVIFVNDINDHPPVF
Kind of assay: ITC; MicroCal ITC200; Fat4 constructs at 30 µM in the sample cell, Dchs1 constructs at 300 µM as titrants; 20 °C; one set of sites.

The target of assay [4] is Human Fat4R152A(EC1-4) (human) (UniProt Q6V0I7). Kind of assay: ITC; MicroCal ITC200; Fat4 construct 30 µM in the sample cell, Dchs1 construct 300 µM as titrant; 20 °C; fitted with one set of sites; two independent experiments.
A further assay deals with T2, human Fat4(EC1–4) (human, UniProt Q6V0I7 43-475).
T2 construct: human Fat4, EC1–EC4, aa43–475; Form used in ITC; also called wild type Fat4(EC1–4)
T2 sequence: T1 sequence with A112R
In words: ITC; MicroCal ITC200; Fat4 constructs at 30 µM in the sample cell, Dchs1 constructs at 300 µM as titrants; 20 °C; one set of sites. The following applies: both partners purified.

Assay [5] concerns the target T3, Human Fat4(EC1-4) (human, UniProt Q6V0I7 43-475).
T3 construct: human Fat4, extracellular cadherin domains EC1-EC4, aa43-475; A 3C protease site stands between the protein and the C-terminal BAP-tag and His6; also called WT
T3 sequence: T1 sequence with A112R
Kind of assay: ITC; MicroCal ITC200; Fat4 constructs 30 µM in the sample cell, Dchs1 constructs 300 µM as titrants; 20 °C; one set of sites. The following applies: both partners purified.

For assay [6], the target named is T4, Human Fat4(EC1-4) (human, UniProt Q6V0I7 43-475).
T4 construct: Fat4, human, EC1-EC4, aa43-475; Tags were cleaved only for the constructs meant for co-crystallisation; nothing is said for ITC; also called Fat4 EC1–EC4
T4 sequence: T1 sequence with A112R
Kind of assay: ITC; MicroCal ITC200; Fat4 construct 30 µM in the sample cell, Dchs1 construct 300 µM as titrant; 20 °C; fitted with one set of sites; two independent experiments. The following applies: both partners purified.

In general, Kd refers to the constant that tells how readily two partners part at equilibrium. As for PCDH15 EC1-EC2 (from UniProt Q99PJ1), the dissociation constant (Kd) in the assay with CDH23 EC1-EC2 is 2.9 µM. Consider “Drosophila Ds(EC1–4), phosphorylated (domain or fragment)”, for which, in assay [1], the Kd worked out at 12.5 µM. On to “Drosophila Ds(EC1-4), unmodified (from UniProt Q24292 74-3556) (domain or fragment)”, for which the Kd in [2] was 4.1 µM and 5.05 µM. “Drosophila Ds(EC1–4), unmodified (domain or fragment)” showed a dissociation constant (Kd) in assay [1] of 4.58 µM. As usually defined, the stoichiometry N is the number of molecules, sites or subunits per partner or assembly. Molecule “Phosphorylated Drosophila Ds(EC1-4) (from UniProt Q24292 74-3556) (domain or fragment)” yielded a stoichiometry N in [3] of 0.751 sites. The Kd in assay [2] is 13.6 µM and 11.4 µM.

Take “Drosophila Ds(EC1-4) (from UniProt Q24292 74-3556) (domain or fragment)”: the stoichiometry N in assay [3] turned out to be 0.777 sites.

B1: human Dchs1(EC1–4) (domain or fragment)
chain: DPQAGSLDLQIDEEQPAGTLIGDISAGLPAGTAAPLMYFISAQEGSGVGTDLAIDEHSGVVRTARVLDREQRDRYRFTAVTPDGATVEVTVRVADINDHAPAFPQARAALQVPEHTAFGTRYPLEPARDADAGRLGTQGYALSGDGAGETFRLETRPGPDGTPVPELVVTGELDRENRSHYMLQLEAYDGGSPPRRAQALLDVTLLDINDHAPAFNQSRYHAVVSESLAPGSPVLQVFASDADAGVNGAVTYEINRRQSEGDGPFSIDAHTGLLQLERPLDFEQRRVHELVVQARDGGAHPELGSAFVTVHVRDANDNQPSMTVIFLSADGSPQVSEAAPPGQLVARISVSDPDDGDFAHVNVSLEGGEGHFALSTQDSVIYLVCVARRLDREERDAYNLRVTATDSGSPPLRAEAAFVLHVTDVNDNAPAF
In turn, B1 returned a fold decrease in binding affinity against wild type with Human Fat4(EC1-4) R152A of 9 fold.

B2: Human Dchs1(EC1-4) (domain or fragment)
chain: B1 chain
For B2, the dissociation constant (Kd) is 3.39 µM and 5.18 µM in [4]; 4.29 µM in assay [4] (mean).

B3: human Dchs1(EC1–4) (domain or fragment)
chain: B1 chain
notes: human Dchs1, EC1–EC4, aa43–472; Form used in ITC; also called Dachsous1(EC1–4); wild type Dchs1(EC1–4)
B3 yielded a Kd with human Fat4(EC1–4) of 0.47 ± 0.13 µM.

B4: Human Dchs1(EC1-4) F79A (domain or fragment)
chain: B1 chain with F39A
notes: human Dachsous1 (Dchs1), EC1-EC4, aa43-472, with F79A in EC1; also called Dchs1F79A(EC1-4); Dchs1F79A
As to B4, the “stoichiometry N” value with Human Fat4(EC1-4) [5] worked out at 0.924 ± 0.00978 sites.

B5: Human Dchs1(EC1-4) R297A (domain or fragment)
chain: B1 chain with R257A
notes: human Dachsous1 (Dchs1), EC1-EC4, aa43-472, with R297A; also called Dchs1R297A(EC1-4); Dchs1R297A
For B5, the “stoichiometry N” value with Human Fat4(EC1-4) [5] turned out to be 1.02 ± 0.138 sites.

B6: Human Dchs1(EC1-3) (domain or fragment)
chain: DPQAGSLDLQIDEEQPAGTLIGDISAGLPAGTAAPLMYFISAQEGSGVGTDLAIDEHSGVVRTARVLDREQRDRYRFTAVTPDGATVEVTVRVADINDHAPAFPQARAALQVPEHTAFGTRYPLEPARDADAGRLGTQGYALSGDGAGETFRLETRPGPDGTPVPELVVTGELDRENRSHYMLQLEAYDGGSPPRRAQALLDVTLLDINDHAPAFNQSRYHAVVSESLAPGSPVLQVFASDADAGVNGAVTYEINRRQSEGDGPFSIDAHTGLLQLERPLDFEQRRVHELVVQARDGGAHPELGSAFVTVHVRDANDNQPSM
notes: human Dachsous1 (Dchs1), extracellular cadherin domains EC1-EC3, aa43-362; A 3C protease site stands between the protein and the C-terminal BAP-tag and His6
Consider B6, for which, in the assay with Human Fat4(EC1-4) [5], the “stoichiometry N” value amounted to 0.978 ± 0.0137 sites.

B7: human Dchs1(EC1–3) (domain or fragment)
chain: B6 chain
notes: human Dchs1, EC1–EC3, aa43–362; Form used in ITC; also called wild type Dchs1(EC1–3)
The molecule B7 yielded a Kd with human Fat4(EC1–4) of 0.98 ± 0.12 µM.

B8: Human Dchs1(EC1-3) (domain or fragment)
chain: B6 chain
notes: Dchs1 (Dachsous1), human, EC1-EC3, aa43-362
As to B8, the Kd with Human Fat4(EC1-4) [6] was 0.98 µM and 0.97 µM.
